Series [1] deals with hypophysectomized (hypox) rats. In words: body weight gain in hypophysectomized (hypox) rats. The following applies: for % Weight Gain Mean: hypox rats, 24 ug pST/day for 9 days, weight gain over a 10 day period; for % Relative Bioactivity: relative to the pituitary derived pST standard tested at similar concentration, 24 ug. Type of series: in vivo, rat. The protocol: The relative bioactivity and biopotency of non-derivatized rpST and small-loop derivatized rpST prepared according to the method of Example 1 was determined by measuring the body weight gain in hypophysectomized (hypox) rats. Four (4) groups of 10 hypox rats per group received 24 μg pST/day of pST standard, dialyzed Zn-rpST, small-loop derivatized Zn-rpST, or non-derivatized Zn-rpSt for 9 days. Rats were monitored daily and their body weight gains recorded over a 10 day period. The weight gain was measured and the percent relative bioactivity calculated as a percent of standard.

Another series addresses T1, porcine liver membranes (Sus scrofa, UniProt P19756).
T1 construct: porcine liver membranes; from tissue; host or cells: porcine liver membranes
T1 sequence (P19756 19-638): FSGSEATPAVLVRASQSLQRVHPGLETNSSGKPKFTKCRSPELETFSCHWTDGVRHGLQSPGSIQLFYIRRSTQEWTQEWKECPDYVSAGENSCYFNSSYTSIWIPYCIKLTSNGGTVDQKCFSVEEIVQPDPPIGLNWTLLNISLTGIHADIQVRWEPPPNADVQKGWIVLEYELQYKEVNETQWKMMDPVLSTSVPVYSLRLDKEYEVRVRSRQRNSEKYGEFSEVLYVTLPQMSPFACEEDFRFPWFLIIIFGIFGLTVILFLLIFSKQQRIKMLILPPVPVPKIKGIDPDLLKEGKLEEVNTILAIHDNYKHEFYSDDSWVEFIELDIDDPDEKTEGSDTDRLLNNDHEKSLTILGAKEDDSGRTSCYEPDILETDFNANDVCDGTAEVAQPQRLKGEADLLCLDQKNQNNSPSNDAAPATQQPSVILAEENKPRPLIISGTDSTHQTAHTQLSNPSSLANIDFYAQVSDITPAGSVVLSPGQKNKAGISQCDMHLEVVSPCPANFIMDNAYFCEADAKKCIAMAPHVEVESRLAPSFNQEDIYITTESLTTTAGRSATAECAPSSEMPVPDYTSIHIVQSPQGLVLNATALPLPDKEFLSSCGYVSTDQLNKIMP
In words: binding activity in porcine liver membranes (homologous somatotropin radioreceptor assay). The settings on record: relative to unmodified (non-derivatized) rpST = 100%. The protocol:
The bioactivity of non-derivatized rpST and small-loop derivatized rpST prepared according to the method of Example 1 was determined using binding activity in porcine liver membranes according to a modification of the method in Haro et al., Homologous Somatotropin Radio Receptor Assay Utilizing Recombinant Bovine Growth Hormone, Mol. Cell Endocrinol., 38:109-116 (1985).

Series [2] addresses T2, pregnant rabbit liver membranes (Oryctolagus cuniculus, UniProt P19941).
T2 construct: pregnant rabbit liver membranes; from tissue; host or cells: liver membranes of pregnant rabbits
T2 sequence (P19941 19-638): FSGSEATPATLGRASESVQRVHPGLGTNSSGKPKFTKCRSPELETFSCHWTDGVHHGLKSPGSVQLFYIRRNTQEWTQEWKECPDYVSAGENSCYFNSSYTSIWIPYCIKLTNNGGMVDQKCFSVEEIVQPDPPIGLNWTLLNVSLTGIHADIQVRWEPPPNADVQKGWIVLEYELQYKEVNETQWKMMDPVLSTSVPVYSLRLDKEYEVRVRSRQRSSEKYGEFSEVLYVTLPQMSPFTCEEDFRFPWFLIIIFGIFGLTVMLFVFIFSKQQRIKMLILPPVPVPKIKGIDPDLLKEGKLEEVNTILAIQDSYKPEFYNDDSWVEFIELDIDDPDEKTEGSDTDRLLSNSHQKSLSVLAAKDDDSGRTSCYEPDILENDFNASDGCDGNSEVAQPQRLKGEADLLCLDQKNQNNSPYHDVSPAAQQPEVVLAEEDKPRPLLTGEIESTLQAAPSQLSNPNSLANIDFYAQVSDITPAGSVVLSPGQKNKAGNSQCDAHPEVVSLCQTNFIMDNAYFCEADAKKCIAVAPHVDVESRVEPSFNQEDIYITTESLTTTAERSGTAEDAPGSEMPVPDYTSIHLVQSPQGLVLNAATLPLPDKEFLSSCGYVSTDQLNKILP
Nature of the series: pST binding assay using pregnant rabbit liver membranes and 125I-labelled rpST. The following applies: calculated from the IC-50 data relative to the standard. On the procedure: The bioactivity of non-derivatized rpST and small-loop derivatized rpST prepared according to the method of Example 1 was determined by pST binding assays using pregnant rabbit liver membranes and ^125 I-labelled rpST. A modified version of the assay disclosed in Tsushima et al., Radioreceptor Assay for Growth Hormone, J. Clin. Endocrinol. Metab., 37:334-337 (1973) was used: The rpST sample was incubated at 30° C. for 3.5 hours with 16,000 cpm ^125 I-rpST. The range of concentration used for the displacement curve of the rpST standard and small-loop derivatized rpST was between 0.38-200 ng/ml. Additional information for the pST binding assay are described in Tsushima et al., Radioreceptor Assay for Growth Hormone, J. Clin. Endocrinol. Metab., 37:334-337 (1973).

Series [3] is described as follows: stability in the wetted state, rpST monomer recovery. Type of series: physicochemical. The settings on record: 5 mg wetted with Tris-HCl pH 7.4 or carbonate buffer pH 9.8, 14 days at 37° C.; compared with non-derivatized rpST. On the procedure: Non-derivatized rpST and small-loop derivatized rpST (prepared with IA according to Example 1) containing 5 mg/ml were dialyzed against 0.46 mM carbonate buffer an lyophilized to produce dry rpST samples for further testing. Five mg of dry small-loop derivatized and non-derivatized rpST were wetted with 0.01 ml of 50 mM Tris-HCl, pH 7.4, 0.05% sodium azide or 46 mM carbonate buffer, pH 9.8, 0.05% sodium azide. The paste was allowed to incubate for 14 days at 37° C. At the end of this time, the rpST was diluted to a final concentration of about 1.8 mg/ml in 46 mM carbonate buffer, pH 9.8, sonicated in a Branisonic 220 sonicator for several minutes, and centrifuged at 15,000×G for 5 minutes. The supernatant was analyzed for monomer content by the chromatographic procedure described in Example 6.

Series [4] is described as follows: solution stability, rpST monomer by Superose-12 size-exclusion chromatography. Type of series: physicochemical. The following applies: 8 mg/ml, carbonate buffer pH 9.8 or phosphate buffered saline pH 7.4, 37° C., 0.6-120 days; compared with non-derivatized rpST. On the procedure: 8 mg/ml non-derivatized rpST and small-loop derivatized rpST (prepared with IA according to Example 1) solutions containing 0.5% sodium azide were prepared in either 46 mM carbonate buffer (pH 9.8) or phosphate buffered saline (pH 7.4). Aliquots of 1.25 ml were incubated in Eppendorf Microcentrifuge tubes for 0.6, 4.6, 8.8, 22 and 120 days at 37° C.
At the end of each incubation period the aliquots were removed and analyzed for rpST monomer using Superose-12 size-exclusion chromatography with a mobile phase of 46 mM carbonate buffer (pH 9.8).
(In general: SEC sorts molecules by how far they enter the pores of the column.)

Consider six molecules from patent publication US5079230A, “Stable bioactive somatotropins” (Pitman-Moore, Inc., priority 1988, dated 1992).

B1: pST Standard: pST standard of the hypox rat assay; footnote mentions pituitary derived pST standard (protein, UniProt P01248 27-216, looked up)
Somatotropin: FPAMPLSSLFANAVLRAQHLHQLAADTYKEFERAYIPEGQRYSIQNAQAAFCFSETIPAPTGKDEAQQRSDVELLRFSLLLIQSWLGPVQFLSRVFTNSLVFGTSDRVYEKLKDLEEGIQALMRELEDGSPRAGQILKQTYDKFDTNLRSDDALLKNYGLLSCFKKDLHKAETYLRVMKCRRFVESSCAF
With B1, in series [1] (at equivalent dose when the ST was dissolved in 9.5 high pH buffer), the relative bioactivity turned out to be 51%. In series [1], the “% Weight Gain Mean” value was 23.1% and the “% Relative Bioactivity” value was 55%.

B2: Dialyzed Zn-rpST: dialyzed zinc recombinant porcine somatotropin (protein, UniProt P01248 27-216, looked up)
Somatotropin: B1 Somatotropin
modifications: zinc form
notes: dialyzed zinc recombinant porcine somatotropin
On to B2, for which, in series [1], the “% Weight Gain Mean” value was determined as 14.4% and the “% Relative Bioactivity” value amounted to 62%.

B3: Non-derivatized Zn-rpST: zinc form of non-derivatized recombinant porcine somatotropin (protein, UniProt P01248 27-216, looked up)
Somatotropin: B1 Somatotropin
modifications: zinc form
notes: zinc form of non-derivatized recombinant porcine somatotropin
For the molecule B3, in series [1], the “% Weight Gain Mean” value came out at 17.1% and the “% Relative Bioactivity” value turned out to be 74%.

B4: non-derivatized rpST: unmodified recombinant porcine somatotropin produced in E. coli ATCC 53031 (protein, UniProt P01248 27-216, looked up)
Somatotropin: B1 Somatotropin
modifications: E. coli recombinant
For B4, in the series with porcine liver membranes, the activity is recorded as 100%. Moreover, in series [1], the “% Weight Gain Mean” value was found to be 14.4%. Also, the percent activity entry in series [2] is “about 75%”.

B5: Small-loop derivatized Zn-RpST: zinc form of small-loop derivatized recombinant porcine somatotropin (protein, UniProt P01248 27-216, looked up)
Somatotropin: B1 Somatotropin
modifications: zinc form; small-loop cysteines carbamidomethylated
notes: zinc form of small-loop derivatized recombinant porcine somatotropin
As to B5, in series [1], the “% Weight Gain Mean” value came out at 13.5% and the “% Relative Bioactivity” value stood at 58%.

B6: small-loop derivatized rpST: recombinant porcine somatotropin with small-loop disulfide reduced with 2-mercaptoethanol and sulfhydryls carbamidomethylated with iodoacetamide (Example 1) (protein, UniProt P01248 27-216, looked up)
Somatotropin: B1 Somatotropin
modifications: small-loop cysteines carbamidomethylated
Turning to B6, in the series with porcine liver membranes, the activity was 125%. Also, in series [3], the “recovery of rpST monomer” value is reported as “much greater”. In addition, the “% Weight Gain Mean” value in series [1] is 13.5%. In addition, the “percentage of monomer recovered” value in series [4] is “higher percentage of monomer recovered”. The percent activity in series [2] is 181%.
